Data from publication PMC8625570, “Selectivity Determinants of RHO GTPase Binding to IQGAPs” (International Journal of Molecular Sciences, 2021).
Values joined by “and” are separate entries in the source; they are usually repeats but may differ in a detail not shown here. Equal entries are not always repeated.

B1: IQGAP1^C794 (C-terminal half of human IQGAP1 with the GRD, RGCT and CT domains) (domain or fragment, UniProt P46940 863-1657, looked up)
chain: DPPMVVVRKFVHLLDQSDQDFQEELDLMKMREEVITLIRSNQQLENDLNLMDIKIGLLVKNKITLQDVVSHSKKLTKKNKEQLSDMMMINKQKGGLKALSKEKREKLEAYQHLFYLLQTNPTYLAKLIFQMPQNKSTKFMDSVIFTLYNYASNQREEYLLLRLFKTALQEEIKSKVDQIQEIVTGNPTVIKMVVSFNRGARGQNALRQILAPVVKEIMDDKSLNIKTDPVDIYKSWVNQMESQTGEASKLPYDVTPEQALAHEEVKTRLDSSIRNMRAVTDKFLSAIVSSVDKIPYGMRFIAKVLKDSLHEKFPDAGEDELLKIIGNLLYYRYMNPAIVAPDAFDIIDLSAGGQLTTDQRRNLGSIAKMLQHAASNKMFLGDNAHLSIINEYLSQSYQKFRRFFQTACDVPELQDKFNVDEYSDLVTLTKPVIYISIGEIINTHTLLLDHQDAIAPEHNDPIHELLDDLGEVPTIESLIGESSGNLNDPNKEALAKTEVSLTLTNKFDVPGDENAEMDARTILLNTKRLIVDVIRFQPGETLTEILETPATSEQEAEHQRAMQRRAIRDAKTPDKMKKSKSVKEDSNLTLQEKKEKIQTGLKKLTELGTVDPKNKYQELINDIARDIRNQRRYRQRRKAELVKLQQTYAALNSKATFYGEQVDYYKSYIKTCLDNLASKGKVSKKPREMKGKKSKKISLKYTAARLHEKGVLLEIEDLQVNQFKNVIFEISPTEEVGDFEVKAKFMGVQMETFMLHYQDLLQLQYEGVAVMKLFDRAKVNVNLLIFLLNKKFYGK
B2: CDC42 (aa 1-178) (natural protein)
chain: not shown
B3: IQGAP2^C795 (C-terminal fragment of IQGAP2) (domain or fragment, human, UniProt Q13576 780-1575, looked up)
chain: PLTVIRKFVYLLDQSDLDFQEELEVARLREEVVTKIRANQQLEKDLNLMDIKIGLLVKNRITLEDVISHSKKLNKKKGGEMEILNNTDNQGIKSLSKERRKTLETYQQLFYLLQTNPLYLAKLIFQMPQNKSTKFMDTVIFTLYNYASNQREEYLLLKLFKTALEEEIKSKVDQVQDIVTGNPTVIKMVVSFNRGARGQNTLRQLLAPVVKEIIDDKSLIINTNPVEVYKAWVNQLETQTGEASKLPYDVTTEQALTYPEVKNKLEASIENLRRVTDKVLNSIISSLDLLPYGLRYIAKVLKNSIHEKFPDATEDELLKIVGNLLYYRYMNPAIVAPDGFDIIDMTAGGQINSDQRRNLGSVAKVLQHAASNKLFEGENEHLSSMNNYLSETYQEFRKYFKEACNVPEPEEKFNMDKYTDLVTVSKPVIYISIEEIISTHSLLLEHQDAIAPEKNDLLSELLGSLGEVPTVESFLGEGAVDPNDPNKANTLSQLSKTEISLVLTSKYDIEDGEAIDSRSLMIKTKKLIIDVIRNQPGNTLTEILETPATAQQEVDHATDMVSRAMIDSRTPEEMKHSQSMIEDAQLPLEQKKRKIQRNLRTLEQTGHVSSENKYQDILNEIAKDIRNQRIYRKLRKAELAKLQQTLNALNKKAAFYEEQINYYDTYIKTCLDNLKRKNTRRSIKLDGKGEPKGAKRAKPVKYTAAKLHEKGVLLDIDDLQTNQFKNVTFDIIATEDVGIFDVRSKFLGVEMEKVQLNIQDLLQMQYEGVAVMKMFDKVKVNVNLLIYLLNKKFYGK
notes: IQGAP2, aa 780-1575; also called IQGAP2^C975

How the values were obtained:
[1] = molecular target: T1, RAC1 (aa 1-179) (human, UniProt P63000 1-179); assay: cell-based or functional assay
[2] = molecular target: T1, RAC1 (aa 1-179); assay: SEC; analytical SEC, Superdex 200 10/300, 30 mM Tris/HCl pH 7.5, 150 mM NaCl, 5 mM MgCl2; IQGAP1^C794 and IQGAP2^C795 alone or mixed with CDC42•GppNHp or RAC1•GppNHp; fractions on Coomassie-stained SDS-PAGE; MW from a calibration curve; design: reference not given here; details: both partners purified
[3] = molecular target: B2; assay: as above; design: reference not given here; details: both partners purified
[4] = molecular target: the molecule itself; assay: as above; design: reference not given here
[5] = molecular target: RAC1 T25K/N26D (human, UniProt P63000 1-179, T25K | N26D); assay: stopped-flow fluorescence spectrometry; kon from 0.2 µM mGppNHp-bound RHO GTPase with 2-8 µM IQGAP1^C794; koff by displacing with 10 µM unlabeled RAC1-GppNHp from 2 µM IQGAP1^C794 with 0.2 µM GTPase; Kd calculated from the rate constants; 25 °C; details: both partners purified
[6] = molecular target: RAC1 M45E/N52E (human, UniProt P63000 1-179, M45E | N52E); assay: as above; details: both partners purified
[7] = molecular target: RAC1 Q74D (human, UniProt P63000 1-179, Q74D); assay: as above; details: both partners purified
[8] = molecular target: T2, RAC2 (aa 1-192) (human, UniProt P15153 1-192); assay: as above; details: both partners purified
[9] = molecular target: T3, RAC3 (aa 1-192) (human, UniProt P60763 1-192); assay: as above; details: both partners purified
[10] = molecular target: B2; assay: as above; details: both partners purified
[11] = molecular target: B1; assay: stopped-flow fluorescence spectrometry; association (kobs): 2 µM IQGAP1^C794 or IQGAP2^C795 mixed with 0.2 µM mGppNHp-bound RHO GTPase; 30 mM Tris-HCl pH 7.5, 10 mM K2HPO4/KH2PO4 pH 7.4, 2 mM MgCl2, 3 mM DTT, 25 °C; details: both partners purified
[12] = molecular target: B3; assay: as above; details: both partners purified
[13] = molecular target: T2, RAC2 (aa 1-192); assay: as above; details: both partners purified
[14] = molecular target: T3, RAC3 (aa 1-192); assay: as above; details: both partners purified

Row | Binder | p50^GAP-stimulated GTP hydrolysis of tamraGTP-bound RAC1 (0.2 µM RAC1, 10 µM p50^GAP) in the presence of IQGAP1^C794 [1] | stoichiometry N [2] | stoichiometry N [3] | stoichiometry N [4] | binding result [5] | binding result [6] | binding result [7] | Kd [8] | fold faster kon than with RAC1 [8] | fold lower Kd than with RAC1 [8] | fold lower koff than with RAC1 [8] | binding result [9] | fold higher binding affinity than with RAC1 [10] | binding result [11] | binding result [12] | binding result [13] | binding result [14]
1 | B1 | 25 fold | 1 IQGAP per GTPase (printed as 2:2) | 1 IQGAP per GTPase (printed as 2:2) | 2 | binds | binds | binds | 27 nM | 4 fold | 34 fold | 8 fold | binds | 3 fold | – | – | – | –
2 | B2 | – | – | – | 2 | – | – | – | – | – | – | – | – | – | binds | binds | – | –
3 | B3 | – | 1 IQGAP per GTPase (printed as 2:2) | 1 IQGAP per GTPase (printed as 2:2) | 3 and 4 | – | – | – | – | – | – | – | – | – | – | – | binds | binds
